Reference: IntAct's records for PubMed 17166838

B1: Huntingtin-associated protein 1 (Rattus norvegicus (Rat)), P54256-2 (parent)
chain: MRPKDQVQSSAGDGTGSGDPATGTPTTQPAADPAPEPSAEPKPAPAQGTGSGQKSGSRTKTGGSFCRSRIRGDSDAPWTRYIFQGPYGPRATGLGTGRAEGIWKTPAAYIGRRPGVSGPERAAFIRELQEALCPNPLPRKKITEDDIKVMLYLLEEKERDLNTAARIGQSLVKQNSVLMEENNKLETMLGSAREEILHLRKQVNLRDDLLQLYSDSDDDEEDEEDEEEEEGEEEEREGQRDQDQQHDHPYGAPKPPPKAETLHHCPQLEALKQKLKLLEEENDHLREEASHLDNLEDKEQMLILECVEQFSEASQQMAELSEVLVLRLEGYERQQKEITQLQAEITKLQQRCQSYGAQTEKLQQQLASEKGVHPESLRAGSHMQDYGSRPRERQEDGKSHRQRSSMPAGSVTHYGYSVPLDALPSFPETLAEELRTSLRKFITDPAYFMERCDTRCREERKKEQGTMPPPPVQDLKPPEDFEAPEELVPEEELGAIEEVGTAEDGPAEETEQASEETEAWEEVEPEVDEATRMNVVVSALEASGLGPSHLDMKYVLQQLSNWQDAHSKRQQKQKVVPKGECSRRGHPPASGTSYRSSTL

Variants of: B1
Conditions: with 1433z_human YWHAZ

Variant | effect of a mutation on the interaction
MRPKDQVQSSAGDGTGSGDPATGTPTTQPAADPAPEPSAEPKPAPAQGTGSGQKSGSRTKTGGSFCRSRIRGDSDAPWTRYIFQGPYGPRATGLGTGRAEGIWKTPAAYIGRRPGVSGPERAAFIRELQEALCPNPLPRKKITEDDIKVMLYLLEEKERDLNTAARIGQSLVKQNSVLMEENNKLETMLGSAREEILHLRKQVNLRDDLLQLYSDSDDDEEDEEDEEEEEGEEEEREGQRDQDQQHDHPYGAPKPPPKAETLHHCPQLEALKQKLKLLEEENDHLREEASHLDNLEDKEQMLILECVEQFSEASQQMAELSEVLVLRLEGYERQQKEITQLQAEITKLQQRCQSYGAQTEKLQQQLASEKGVHPESLRAGSHMQDYGSRPRERQEDGKSHRQRSSMPAGSVTHYGYSVPLDALPSFPETLAEELRTSLRKFITDPAYFMERCDTRCREERKKEQGTMPPPPVQDLKPPEDFEAPEELVPEEELGAIEEVGTAEDGPAEETEQASEETEAWEEVEPEVDEATRMNVVVSALEASGLGPSHLDMKYVLQQLSNWQDAHSKRQQKQKVVPKGECSRRGHPPASGTSYRSSAL [T598A] | disrupting interaction
